{
  "source": "patent US20240109978A1",
  "molecular_target": "CD19 on NALM-6 cells (CD19+ B lineage, acute lymphoblastic leukemia) (UniProt P15391)",
  "sequence (P15391 20-556 limits assumed)": "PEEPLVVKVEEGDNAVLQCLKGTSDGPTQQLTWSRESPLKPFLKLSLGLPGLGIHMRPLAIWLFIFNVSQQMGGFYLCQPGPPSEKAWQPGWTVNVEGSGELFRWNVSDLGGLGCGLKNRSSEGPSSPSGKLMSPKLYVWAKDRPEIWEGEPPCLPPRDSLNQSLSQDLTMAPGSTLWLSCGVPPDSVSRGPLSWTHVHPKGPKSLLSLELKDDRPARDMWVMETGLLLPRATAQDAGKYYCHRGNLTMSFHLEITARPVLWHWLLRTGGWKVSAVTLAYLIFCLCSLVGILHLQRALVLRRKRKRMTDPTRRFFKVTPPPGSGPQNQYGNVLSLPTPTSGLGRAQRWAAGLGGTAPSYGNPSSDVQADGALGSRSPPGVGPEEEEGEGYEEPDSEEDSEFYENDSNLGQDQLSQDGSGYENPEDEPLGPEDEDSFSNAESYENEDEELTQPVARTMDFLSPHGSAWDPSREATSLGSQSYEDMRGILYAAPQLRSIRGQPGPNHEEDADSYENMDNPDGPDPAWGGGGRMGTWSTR",
  "test": "cell-based or functional assay",
  "data": [
    {"substance": "IgG1-based CAR (FMC63 scFv, IgG1-CH2-CH3 spacer, CD28 transmembrane and intracellular domains, and CD3zeta-signaling domain) (receptor)", "values": [
      {"measurement": "killing efficacy against NALM-6 cells, 18 h co-culture, 2:1 (E:T) ratio (luciferase)", "value": 100, "unit": "%"}
    ]}
  ]
}
